Test results as given in US20190062398A1 (published 2019).

Columns and labels:
Assay in all cases: cytokine release
[1] = biological target: T1, Human papillomavirus type 16 E6 protein peptide on HLA-A*02:01 (human)
T1 peptide: TIHDIILECV

[2] = biological target: T2, Human papillomavirus type 16 E5 protein peptide on HLA-A*02:01 (human)
T2 peptide: YIIFVYIPL

[3] = biological target: T3, Human papillomavirus type 16 E7 protein peptide on HLA-A*02:01 (human)
T3 peptide: TLGIVCPI

Binder | binding result [1] | also measured
T5a (TCR, V domains shown) Valpha: SQQGEEDPQALSIQEGENATMNCSYKTSINNLQWYRQNSGRGLVHLILIRSNEREKHSGRLRVTLDTSKKSSSLLITASRAADTASYFCATVSTDSWGKLQFGAGTQVVVTP Vbeta: DAGITQSPRHKVTETGTPVTLRCHQTENHRYMYWYRQDPGHGLRLIHYSYGVKDTDKGEVSDGYSVSRSKTEDFLLTLESATSSQTSVYFCAISDSNGINIQYFGAGTRLSVL | recognises | –
T2 (TCR, V domains shown) Valpha: QKEVEQNSGPLSVPEGAIASLNCTYSDRGSQSFFWYRQYSGKSPELIMSIYSNGDKEDGRFTAQLNKASQYVSLLIRDSQPSDSATYLCAVNVDFNKFYFGSGTKLNVKP Vbeta: DTEVTQTPKHLVMGMTNKKSLKCEQHMGHRAMYWYKQKAKKPPELMFVYSYEKLSINESVPSRFSPECPNSSLLNLHLHALQPEDSALYLCASSQDWNNEQFFGPGTRLTVL | – | binding result [2]: recognises
T3 (TCR, V domains shown) Valpha: EDQVTQSPEALRLQEGESSSLNCSYTVSGLRGLFWYRQDPGKGPEFLFTLYSAGEEKEKERLKATLTKKESFLHITAPKPEDSATYLCAVQANRGSTLGRLYFGRGTQLTVWP Vbeta: DVKVTQSSRYLVKRTGEKVFLECVQDMDHENMFWYRQDPGLGLRLIYFSYDVKMKEKGDIPEGYSVSREKKERFSLILESASTNQTSMYLCASSLWGRLAKNIQYFGAGTRLSVL | recognises | –
T5b (TCR, V domains shown) Valpha: SQQGEEDPQALSIQEGENATMNCSYKTSINNLQWYRQNSGRGLVHLILIRSNEREKHSGRLRVTLDTSKKSSSLLITASRAADTASYFCATVSTDSWGKLQFGAGTQVVVTP Vbeta: DVKVTQSSRYLVKRTGEKVFLECVQDMDHENMFWYRQDPGLGLRLIYFSYDVKMKEKGDIPEGYSVSREKKERFSLILESASTNQTSMYLCASSLWGRAGKDTQYFGPGTRLTVL | recognises | –
T4 (TCR, V domains shown) Valpha: KQEVTQIPAALSVPEGENLVLNCSFTDSAIYNLQWFRQDPGKGLTSLLLIQSSQREQTSGRLNASLDKSSGRSTLYIAASQPGDSATYLCAVRETSGSRLTFGEGTQLTVNP Vbeta: DVKVTQSSRYLVKRTGEKVFLECVQDMDHENMFWYRQDPGLGLRLIYFSYDVKMKEKGDIPEGYSVSREKKERFSLILESASTNQTSMYLCASSFWGRSTDTQYFGPGTRLTVL | recognises | –
T7 (TCR, V domains shown) Valpha: QQPVQSPQAVILREGEDAVINCSSSKALYSVHWYRQKHGEAPVFLMILLKGGEQKGHEKISASFNEKKQQSSLYLTASQLSYSGTYFCGTGTDSWGKLQFGAGTQVVVTP Vbeta: DAGVIQSPRHEVTEMGQEVTLRCKPISGHDYLFWYRQTMMRGLELLIYFNNNVPIDDSGMPEDRFSAKMPNASFSTLKIQPSEPRDSAVYFCASSPGLAGGEQFFGPGTRLTVL | – | binding result [3]: recognises
